{
  "source": "patent US20100015170A1",
  "key": {"[1]": {"target": "human Toll-like receptor 5 (human) (UniProt O60602)", "sequence (O60602 21-858)": "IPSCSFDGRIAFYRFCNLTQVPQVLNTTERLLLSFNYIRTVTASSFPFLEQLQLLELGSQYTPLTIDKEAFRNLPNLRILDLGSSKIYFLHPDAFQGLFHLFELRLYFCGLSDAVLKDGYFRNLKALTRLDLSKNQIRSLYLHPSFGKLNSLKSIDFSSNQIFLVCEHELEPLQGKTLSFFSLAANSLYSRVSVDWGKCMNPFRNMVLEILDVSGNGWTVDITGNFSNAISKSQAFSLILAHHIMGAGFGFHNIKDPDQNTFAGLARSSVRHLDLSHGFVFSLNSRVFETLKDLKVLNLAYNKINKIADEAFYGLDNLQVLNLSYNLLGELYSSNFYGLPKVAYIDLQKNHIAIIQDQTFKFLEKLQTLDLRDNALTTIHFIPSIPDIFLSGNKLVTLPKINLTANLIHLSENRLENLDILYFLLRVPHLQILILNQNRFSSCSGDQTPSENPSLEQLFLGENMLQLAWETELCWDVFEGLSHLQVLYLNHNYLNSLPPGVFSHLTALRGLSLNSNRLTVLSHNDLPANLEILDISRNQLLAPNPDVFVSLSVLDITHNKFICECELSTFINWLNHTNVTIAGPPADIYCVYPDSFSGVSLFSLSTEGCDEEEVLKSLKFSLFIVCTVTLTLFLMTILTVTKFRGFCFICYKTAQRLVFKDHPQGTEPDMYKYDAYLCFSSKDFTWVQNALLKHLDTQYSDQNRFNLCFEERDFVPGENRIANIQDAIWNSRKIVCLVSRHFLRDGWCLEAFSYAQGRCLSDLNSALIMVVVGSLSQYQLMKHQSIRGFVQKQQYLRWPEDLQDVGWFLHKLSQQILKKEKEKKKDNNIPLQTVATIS", "assay": "cell-based or functional assay"}, "[2]": {"target": "mouse Toll-like receptor 5 (mouse) (UniProt Q9JLF7)", "sequence (Q9JLF7 27-859)": "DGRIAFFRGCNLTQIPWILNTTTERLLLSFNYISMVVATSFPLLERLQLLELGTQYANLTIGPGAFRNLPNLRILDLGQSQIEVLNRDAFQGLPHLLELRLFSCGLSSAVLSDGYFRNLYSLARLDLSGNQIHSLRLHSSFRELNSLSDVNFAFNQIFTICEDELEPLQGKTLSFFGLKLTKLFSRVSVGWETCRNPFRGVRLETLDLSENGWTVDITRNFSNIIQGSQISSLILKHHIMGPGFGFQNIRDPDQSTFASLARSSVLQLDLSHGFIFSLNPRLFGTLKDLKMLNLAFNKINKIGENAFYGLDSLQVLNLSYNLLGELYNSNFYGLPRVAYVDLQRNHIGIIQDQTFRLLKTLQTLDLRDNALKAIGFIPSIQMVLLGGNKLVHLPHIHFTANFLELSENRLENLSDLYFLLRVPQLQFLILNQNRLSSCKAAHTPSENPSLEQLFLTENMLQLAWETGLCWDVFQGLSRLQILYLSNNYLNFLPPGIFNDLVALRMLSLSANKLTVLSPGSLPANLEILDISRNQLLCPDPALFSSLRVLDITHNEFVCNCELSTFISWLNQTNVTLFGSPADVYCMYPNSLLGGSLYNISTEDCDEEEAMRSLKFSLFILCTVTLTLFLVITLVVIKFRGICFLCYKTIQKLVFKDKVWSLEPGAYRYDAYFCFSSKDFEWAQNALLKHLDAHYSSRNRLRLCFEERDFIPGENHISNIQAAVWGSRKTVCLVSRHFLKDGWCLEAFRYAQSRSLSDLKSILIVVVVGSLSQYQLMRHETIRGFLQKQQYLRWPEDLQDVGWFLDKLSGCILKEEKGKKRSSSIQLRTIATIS", "assay": "cell-based or functional assay"}},
  "data": [
    {"substance": "recombinant mutant flagellin FliC L88A (from UniProt P72151 2-488) (ligand)", "values": [
      {"measurement": "TLR5-mediated NF-κB activation (luciferase, HEK293 cells with human TLR5) (fold lower than FliC WT)", "setting": "[1]", "result": "> 100"},
      {"measurement": "TLR5-mediated NF-κB activation (luciferase, HEK293 cells with mouse TLR5) (fold lower than FliC WT)", "setting": "[2]", "result": "> 100"}
    ]},
    {"substance": "recombinant mutant flagellin FliC R90A (from UniProt P72151 2-488) (ligand)", "values": [
      {"measurement": "TLR5-mediated NF-κB activation (luciferase, HEK293 cells with human TLR5) (fold lower than FliC WT)", "setting": "[1]", "result": "> 100"},
      {"measurement": "TLR5-mediated NF-κB activation (luciferase, HEK293 cells with mouse TLR5) (fold lower than FliC WT)", "setting": "[2]", "result": "> 100"}
    ]}
  ]
}
